Reference: patent publication US20210363232A1 (Eli Lilly, published 2021)

B4: mature Human IL-34 (ligand)
chain: NEPLEMWPLTQNEECTVTGFLRDKLQYRSRLQYMKHYFPINYKISVPYEGVFRIANVTRLQRAQVSERELRYLWVLVSLSATESVQDVLLEGHPSWKYLQEVETLLLNVQQGLTDVEVSPKVESVLSLLNAPGPNLKLVRPKALLDNCFRVMELLYCSCCKQSSVLNWQDCEVPSPQSCSPEPSLQYAATQLYPPPPWSPSSPPHSTGSVRPVRAQGEGLLP
notes: if the entry is the precursor, residues 21-242 apply; NCBI NP_689669.2 is printed; also called hIL-34; h IL-34

How the values were obtained:
Cyno IL-34 [1] = molecular target: T1, Cyno IL-34 (cyno (cynomolgus monkey), UniProt G7Q1L3 21-242); test: cell-based or functional assay
T1 sequence: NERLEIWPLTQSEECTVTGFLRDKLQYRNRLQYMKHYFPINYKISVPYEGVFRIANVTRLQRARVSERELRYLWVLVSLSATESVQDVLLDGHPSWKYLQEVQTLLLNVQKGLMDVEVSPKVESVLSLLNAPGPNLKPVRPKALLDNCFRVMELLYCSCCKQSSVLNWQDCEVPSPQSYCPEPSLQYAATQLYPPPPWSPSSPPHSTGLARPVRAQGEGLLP

mature Human IL-34 [2] = molecular target: B4; test: cell-based or functional assay
mature Human IL-34 [3] = molecular target: B4; test: cell-based or functional assay; remark: listed apart in the source
Cyno IL-34 [4] = molecular target: T1, Cyno IL-34; test: MSD solution equilibrium titration at 37 C; fixed antibody, cyno IL-34 titrated; mean ± STDEV, n = 5
Method: (§1) Briefly, usually a 2-fold or 3-fold dilution series of human, cyno or mouse IL-34 is prepared from a starting concentration of 40, or 50 or 60 or 80 or 100 or 120 nM to 100 fM; and each series includes an IL-34 blank control. Samples are prepared in 3% (w/v) Blocker A solution (MSD®, #R93AA-1) and a fixed final concentration of 5-50 pM of each exemplified antibody in Table 1 is added to each sample. An antibody only control is included. A volume of 50 μl of each protein-antibody sample is added to individual wells of a 96-well microtiter plate (Greiner, EK-20101). The plate is sealed with optical adhesive film (Thermo Fisher Scientific, #4311971) and incubated at 37° C. for 1-3 days to allow for sample equilibrium. On the day before analysis, each row of a 96-well MSD® Standard plate (MSD®, #L15XA) is coated with 30 μl of the corresponding IL-34 (as used in the titration series) at a concentration of 1 μg/ml in phosphate buffered saline (PBS). […] The plate is washed three more times with PBST followed by the addition of 150 μl/well of 1× Read buffer (MSD®, #R92TC-2). The MSD® Standard plate is read using a MESO Quickplex SQ 120/1300 instrument (Meso Scale Discovery).

mature Human IL-34 [5] = molecular target: B4; test: MSD solution equilibrium titration at 37 C; fixed antibody, IL-34 titrated, free antibody captured on IL-34-coated plate; mean ± STDEV, n = 5
Method: as §1

[6] = molecular target: IL-34 (species not stated); test: cell-based or functional assay
Mouse IL-34 = molecular target: T2, Mouse IL-34 (mouse, UniProt Q8R1R4 21-235); test: MSD solution equilibrium titration at 37 C; fixed antibody, mouse IL-34 titrated
T2 construct: NCBI NP_001128572.1 is printed; also called Murine IL-34
T2 sequence: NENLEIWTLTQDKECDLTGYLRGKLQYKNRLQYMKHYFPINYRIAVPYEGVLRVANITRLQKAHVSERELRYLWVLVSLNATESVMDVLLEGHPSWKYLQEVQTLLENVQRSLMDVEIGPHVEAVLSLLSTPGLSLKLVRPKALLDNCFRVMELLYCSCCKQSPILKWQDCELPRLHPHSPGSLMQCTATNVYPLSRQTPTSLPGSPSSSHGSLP
Method: as §1

[7] = molecular target: T3, Human CSF1R Fc fusion protein (Exemplified compound D) (human, UniProt P07333 20-512, limits assumed); test: MSD solution equilibrium titration at 37 C; fixed Fc fusion, IL-34 titrated, free protein captured on IL-34-coated plate; mean ± STDEV, n = 5
T3 construct: Made in house and purified by MabSelect SuRe and size exclusion; also called hCSF1R-Fc; Exemplified compound D (hCSF1R-Fc); not shown: Fc part
T3 sequence (P07333 20-512 limits assumed): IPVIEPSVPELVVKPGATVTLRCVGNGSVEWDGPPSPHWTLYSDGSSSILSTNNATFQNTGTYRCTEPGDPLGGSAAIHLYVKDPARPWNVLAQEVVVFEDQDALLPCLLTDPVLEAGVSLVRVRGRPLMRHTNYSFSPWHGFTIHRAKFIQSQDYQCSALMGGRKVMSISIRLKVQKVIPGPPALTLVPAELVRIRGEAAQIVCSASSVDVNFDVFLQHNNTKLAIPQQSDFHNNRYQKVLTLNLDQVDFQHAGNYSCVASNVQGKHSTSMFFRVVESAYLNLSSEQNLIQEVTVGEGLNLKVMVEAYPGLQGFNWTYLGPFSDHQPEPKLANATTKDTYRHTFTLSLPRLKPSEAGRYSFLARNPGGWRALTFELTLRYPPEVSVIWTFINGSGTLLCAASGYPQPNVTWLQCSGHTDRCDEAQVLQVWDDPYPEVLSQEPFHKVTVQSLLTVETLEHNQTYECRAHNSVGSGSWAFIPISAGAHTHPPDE

B1: Antibody 1 (antibody, human IgG4 S228P, kappa, F234A L235A, V domains shown)
VH: EVQLLESGGGLVQPGGSLRLSCAASGFTFSSYATSWVRQAPGKGLEWVSAISHSGRSTYYADSVKGRFTISRDNSKNTLYLQMNSLRAEDTAVYYCARGRSSLDTWGQGTLVTVSS
VL: EIVLTQSPGTLSLSPGERATLSCRASQSISSAYLAWYQQKPGQAPRLLIYASSIRPTGIPDRFSGSGSGTDFTLTISPLEPEDFAVYYCSQYGDSLSFGGGTKVEIKR
notes: Human anti-human IL-34 antibody with a modified IgG4 (IgG4PAA) heavy chain and kappa light chain; also called Exemplified Antibody 1
In the case of B1, the “IC50; neutralization of cyno IL-34 induced luciferase reporter activity, hCSF1R 293 SRE cells” value (Cyno IL-34 [1]) is reported as 0.654 nM, the “IC50; neutralization of human IL-34 induced luciferase reporter activity, hCSF1R 293 SRE cells” value (mature Human IL-34 [2]) is reported as 0.385 nM and the “IC50; inhibition of human IL-34 induced CSF1R dimerization, PathHunter eXpress assay” value (mature Human IL-34 [3]) is reported as 0.226 nM. The Kd (Cyno IL-34 [4]) was 0.108 nM and the Kd (mature Human IL-34 [5]) was 0.059 nM.

B2: Antibody 3 (antibody, mouse IgG1, kappa, V domains shown)
VH: EVQLLESGGGLVQPGGSLRLSCAASGFTFSYYAMSWVRQAPGKGLEWVSAISHRGGSTLYADSVKGRFTISRDNSKNTLYLQMNSLRAEDTAVYYCARGRSSLDGWGQGTMVTVSS
VL: EIVLTQSPGILSLSPGERASLSCRASTSVSSAYLAWYQQKPGQAPRLLIYASSHRPLGIPDRFSGSGSGTDFTLTISRLEPEDFAVYYCQQYGDSLSFGGGTKVEIKR
notes: Antibody optimised against mouse IL-34; The printed constant regions look murine, and a mIgG1 control is used in vivo; also called Exemplified Antibody 3
B2 was tested, and the “IC50; inhibition of IL-34 induced ERK phosphorylation in NIH-3T3/CSF1R cells” value [6] was 15.7 nM and the Kd (Mouse IL-34) was 0.016 nM.

B3: Antibody 2 (antibody, human IgG4 S228P, kappa, F234A L235A, V domains shown)
VH: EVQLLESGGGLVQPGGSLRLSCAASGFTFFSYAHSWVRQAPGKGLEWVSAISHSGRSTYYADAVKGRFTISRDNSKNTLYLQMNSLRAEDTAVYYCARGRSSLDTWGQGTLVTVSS
VL: EIVLTQSPGTLSLSPGERATLSCRASQSISSAYLAWYQQKPGQAPRLLIYASSIRPTGIPDRFSGSGSGTDFTLTISPLEPEDFAVYYCSQYGDSLSFGGGTKVEIKR
notes: Shares its light chain with Antibody 1; Modified IgG4 heavy chain; also called Exemplified Antibody 2
B3 was tested, and the Kd (Cyno IL-34 [4]) was 0.152 nM and the Kd (mature Human IL-34 [5]) was 0.054 nM.

B4 was tested, and the Kd [7] was 0.056 nM.
